# Reference: paper PMC4357707 (Nucleic Acids Research, 2015)
# Positions count from the first letter of the chain named.
# T1: HEN1-R^1LR^2 (His-tagged, residues 1–519) (Arabidopsis thaliana, UniProt Q9C5Q8 1-519)
# T1 sequence (looked up): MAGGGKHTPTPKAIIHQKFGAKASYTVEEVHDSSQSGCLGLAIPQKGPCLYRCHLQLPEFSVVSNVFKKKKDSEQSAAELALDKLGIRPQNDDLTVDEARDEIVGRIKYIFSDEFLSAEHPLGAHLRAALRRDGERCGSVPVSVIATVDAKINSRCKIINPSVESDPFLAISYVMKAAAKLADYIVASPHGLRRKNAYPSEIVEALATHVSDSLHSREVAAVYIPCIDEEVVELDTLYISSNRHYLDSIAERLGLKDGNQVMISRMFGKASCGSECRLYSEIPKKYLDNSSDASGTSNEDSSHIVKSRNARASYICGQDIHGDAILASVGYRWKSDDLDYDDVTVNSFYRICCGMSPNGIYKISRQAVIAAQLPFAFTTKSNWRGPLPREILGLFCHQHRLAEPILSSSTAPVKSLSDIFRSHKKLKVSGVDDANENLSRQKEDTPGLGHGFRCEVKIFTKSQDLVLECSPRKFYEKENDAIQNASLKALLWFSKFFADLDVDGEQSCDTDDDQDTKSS
# T2: HEN1 wt;HYL1 (Arabidopsis thaliana;Arabidopsis …, UniProt Q9C5Q8;O04492 1-942;1-419, |)
# T2 sequence 1: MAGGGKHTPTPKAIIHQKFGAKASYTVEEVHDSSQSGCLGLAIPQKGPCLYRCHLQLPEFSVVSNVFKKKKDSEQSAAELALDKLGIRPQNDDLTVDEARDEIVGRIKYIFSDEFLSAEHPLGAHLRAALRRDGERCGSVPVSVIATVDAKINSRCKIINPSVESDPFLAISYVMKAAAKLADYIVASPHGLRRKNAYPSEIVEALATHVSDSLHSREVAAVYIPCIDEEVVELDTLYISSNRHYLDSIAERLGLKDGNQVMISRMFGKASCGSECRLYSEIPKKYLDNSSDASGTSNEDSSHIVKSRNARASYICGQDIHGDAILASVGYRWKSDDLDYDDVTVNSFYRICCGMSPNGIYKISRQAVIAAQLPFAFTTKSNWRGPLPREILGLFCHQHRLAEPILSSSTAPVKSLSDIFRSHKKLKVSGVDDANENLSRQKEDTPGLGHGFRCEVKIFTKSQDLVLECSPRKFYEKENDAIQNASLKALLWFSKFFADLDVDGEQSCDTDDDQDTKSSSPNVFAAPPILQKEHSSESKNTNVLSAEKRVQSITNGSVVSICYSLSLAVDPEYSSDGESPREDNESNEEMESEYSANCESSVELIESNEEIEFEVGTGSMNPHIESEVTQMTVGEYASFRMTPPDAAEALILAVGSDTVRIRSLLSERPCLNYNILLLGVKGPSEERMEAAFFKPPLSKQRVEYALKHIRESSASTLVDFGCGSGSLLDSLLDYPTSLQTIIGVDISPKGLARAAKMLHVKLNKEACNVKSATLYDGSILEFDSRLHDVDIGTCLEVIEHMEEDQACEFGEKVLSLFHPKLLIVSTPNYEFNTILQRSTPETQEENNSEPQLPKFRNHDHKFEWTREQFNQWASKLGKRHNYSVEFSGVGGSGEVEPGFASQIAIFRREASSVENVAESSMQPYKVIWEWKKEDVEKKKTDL
# T2 sequence 2: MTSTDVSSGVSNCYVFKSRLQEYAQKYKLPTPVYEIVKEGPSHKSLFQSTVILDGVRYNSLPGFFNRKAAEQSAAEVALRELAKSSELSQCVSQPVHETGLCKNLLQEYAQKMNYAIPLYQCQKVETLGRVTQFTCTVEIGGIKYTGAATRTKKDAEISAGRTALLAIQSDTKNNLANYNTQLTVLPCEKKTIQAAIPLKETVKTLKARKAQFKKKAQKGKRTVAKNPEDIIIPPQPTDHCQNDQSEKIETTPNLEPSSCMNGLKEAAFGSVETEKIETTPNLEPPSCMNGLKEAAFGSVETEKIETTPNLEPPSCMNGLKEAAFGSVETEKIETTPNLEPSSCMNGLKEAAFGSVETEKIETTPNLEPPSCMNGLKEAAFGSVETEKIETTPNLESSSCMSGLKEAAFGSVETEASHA
# T3: HEN1-RHK389,397,477AAA (Arabidopsis thaliana, UniProt Q9C5Q8 1-942, R389A;H397A;K477A)
# T3 sequence: T2 sequence 1 with R389A, H397A, K477A
# T4: HYL1 (Arabidopsis thaliana, UniProt O04492 1-419)
# T4 sequence: T2 sequence 2
# T5: HEN1 wt (Arabidopsis thaliana, UniProt Q9C5Q8 1-942)
# T5 sequence: T2 sequence 1
# T6: HEN1 Δ38-45 (Arabidopsis thaliana, UniProt Q9C5Q8 1-37+=G+46-942, internal_change)
# T6 sequence: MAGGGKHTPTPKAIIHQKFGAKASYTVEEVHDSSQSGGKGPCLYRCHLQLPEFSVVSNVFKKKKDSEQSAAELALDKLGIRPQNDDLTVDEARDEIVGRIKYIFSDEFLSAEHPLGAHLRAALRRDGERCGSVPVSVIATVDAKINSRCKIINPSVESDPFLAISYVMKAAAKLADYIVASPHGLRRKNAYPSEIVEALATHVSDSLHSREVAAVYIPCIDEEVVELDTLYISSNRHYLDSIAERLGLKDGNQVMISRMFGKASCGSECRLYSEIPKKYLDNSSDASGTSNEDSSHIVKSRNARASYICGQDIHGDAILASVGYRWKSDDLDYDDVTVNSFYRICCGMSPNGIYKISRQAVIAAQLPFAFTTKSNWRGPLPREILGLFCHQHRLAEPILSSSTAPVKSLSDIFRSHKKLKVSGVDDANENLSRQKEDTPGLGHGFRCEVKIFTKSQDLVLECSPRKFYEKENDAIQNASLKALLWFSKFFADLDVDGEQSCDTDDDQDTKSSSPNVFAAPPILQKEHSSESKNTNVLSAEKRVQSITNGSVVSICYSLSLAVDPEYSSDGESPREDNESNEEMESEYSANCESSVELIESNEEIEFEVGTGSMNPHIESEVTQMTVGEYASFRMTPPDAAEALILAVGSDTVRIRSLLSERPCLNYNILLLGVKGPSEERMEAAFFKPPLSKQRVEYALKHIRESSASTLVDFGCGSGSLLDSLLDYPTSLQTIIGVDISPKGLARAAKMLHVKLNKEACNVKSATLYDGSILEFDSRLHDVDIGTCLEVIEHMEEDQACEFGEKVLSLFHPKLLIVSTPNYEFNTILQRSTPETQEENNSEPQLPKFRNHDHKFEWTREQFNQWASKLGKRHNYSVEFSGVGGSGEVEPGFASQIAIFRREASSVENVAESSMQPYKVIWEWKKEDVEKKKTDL
# B1: GST-HYL1 (GST-fused full-length HYL1) (natural protein, UniProt O04492 1-419, looked up)
# chain: T2 sequence 2
# B2: siR173/siR173* (dsRNA)
# RNA 1: UUAACGCUUGCAGAGAGAAUCAC
# RNA 2: GAUUCUCUCUGCAAGCGUUAAAG
# B3: miR173CH3/miR173*CH3 (dsRNA)
# RNA 1: UUCGCUUGCAGAGAGAAAUCAC
# RNA 2: GAUUCUCUGUGUAAGCGAAAG
# modifications: 2'-O-methyl on 3'-terminal nucleotide of both strands
# Tests used:
# [1] = molecular target: T1, HEN1-R^1LR^2 (His-tagged, residues …); assay: pull-down
# [2] = molecular target: T2, HEN1 wt;HYL1; assay: EMSA
# [3] = molecular target: T3, HEN1-RHK389,397,477AAA; assay: EMSA
# [4] = molecular target: T4, HYL1; assay: EMSA
# [5] = molecular target: T5, HEN1 wt; assay: EMSA
# [6] = molecular target: T6, HEN1 Δ38-45; assay: EMSA
# [7] = molecular target: T3, HEN1-RHK389,397,477AAA; assay: EMSA; remark: listed apart in the source
binder,measurement,setting,value
B1,binding result,[1],binds
B2,binding result,[2],binds
same,Kd,[3],293 ± 27 nM
same,binding result,[4],binds
B3,Kd,[5],7.2 ± 0.1 nM
same,Kd,[6],2.1 ± 0.1 nM
same,binding result,[7],no binding
